Reference: patent publication US9096835B2, “DNA polymerase” (Medical Research Council, priority 2003, dated 2015)

B1: 3B6: third round clone, abasic site bypass; SEQ ID NO: 90 (protein)
chain: MAMLPLFEPKGRVLLVDGHHLAYRAFFALKGLTTSRGEPVQAVYGFAKSLLKALKEDGYKAVFVVFDAKAPSFRHEAYEAYKAGRAPTPEDFPRQLALIKELVDLLGFTRLEVQGYEADDVLATLAKKAEKEGYEVRILTADRDLYQLVSDRVAVLHPEGHLITPEWLWEKYGLRPEQWVDFRALVGDPSNNLPGVKGIGEKTALKLLKEWGSLENLLKNLDRVKPENVREKIKAHLEDLRLSLELSRVRTDLPLEVDLAQGRELDRERLRAFLERLEFGGLLHEFGLLESPKALEEAPWPPPEGAFVGFVLSRKEPMWADLLALAAARGGRVHRAPEPYKALRDLKEARGLLAKDLSVLALREGLGLPPGDDPMLLAYLLDPSNTAPEGVARRYGGEWTEEAGERAALSERLFANLWGRLEGEERLLWLYREVDRPLSAVLAHMEATGVRLDVAYLRALSLEVAEEIARLEAEVFRLAGHPFNLNSRDQLERVLFDELGLPAIGKTEKTGKRSTSAAVLEALREAHPIVEKILQYRELTKLKSTYIDPLPNLIHPRTGRLHTRFNQTATATGRLSSSDPNLQNIPVRTPLGQRIRRAFIAEEGWLLVVLDYSQIELRVLAHLSGDENLIRVFQEGRDIHTETASWMFGVPREAVDPLMRRAAKTINFGVLYGMSAHRLSQELAIPYEEAQAFIERYFQSFPKVRAWIEKTLEEGRKRGYVETLFGRRRYVPDLNARVKGVREAAERMAFNMPVQGTAADLMKLAMVKLFPRLREMGARMLLQVHDELLLEAPQARAGEVAALAKEAMEKAYPLAVPLEVKVGIGEDWLSAKE
modifications: Mutant Taq polymerase
B2: 3B8: third round clone; SEQ ID NO: 92 (protein)
chain: MAMLPLFEPKGRVLLVDGHHLAYRTFFALKGLTTSRGEPVQVVYGFAKSLLKALKEDGYKAVFVVFDAKAPSLRHEAYEAYKAGRAPTPEDFLRQLALIKELVDLLGFTRLEVQGYEADDVLATLAKKAEKEGYEVRILTADRDLYQLVSDRVAVLHPEGHLITPEWLWEKYGLRPEQWVDFRALVGDPSDNLPGVKGIGEKTALKLLKEWGSLENLLKNLDRLKPAIREKILAHMDDLKLSWDLAKVRTDLPLEVDFAKRREPDRERLRAFLERLELGSLLHEFGLLESPKTLEEASWPPPEGAFVGFVLSRKEPMWADLLALAAARGGRVHRAPEPYKALRDLKEARGLLAKDLSVLALREGLGLPPGDDPMLLAYLLDPSNTTPEGVARRYGGEWTKEAGERAALSERLFANLWGRLEGEERLLWLYREVDRPLSAVLAHMEATGVRLDVAYLRALSLEVAEEIARLEAEVFRLAGHPFNLNSRDQLERVLFDELGLPAIGKTEKTGKRSTSAAVLEALREAHPIVEKILQYRELTKLKSTYIDPLPDLIHPRTGRLHTRFNQTATATGRLSSSDPNLQNIPVRTPLGQRIRRAFVAEEGWLLVVLDYSQIELRVLAHLSGDENLTRVFLEGRDIHTETASWMFGVPREAVDPLMRRAAKTINFGVLYGMSAHRLSQELAIPYEEAQAFIERYFQSFPKVRAWIEKTLEEGRKRGYVETLFGRRRYVPDLNARVKSVREAAERMAFNMPVQGTAADLMKLAMVKLFPRLREMGARMLLQVHDELLLEAPQARAEEVAALAKEAMEKAYPLAVPLEVKEGIGEDWLSAKE
modifications: Mutant Taq polymerase
B3: 3B5: third round clone, four mismatch extension; SEQ ID NO: 88 (protein)
chain: MAMLPLFEPKGRVLLVDGHHLAYRTSFALKGPTTSRGEPVQVVYGFAKSLLKALKEDGYKAVFVVFDAKAPPFRHKAYEAYRAGRAPTPEDFPRQLALVKELVDLLGFTRLEVPGYEADDVLATLAKKAEKEGYEVRILTADRGLYQLVSDRVAVLHPEGHLITPEWLWEKYGLRPEQWVDFRALVGDPSDNLPGVKGIGEKTALKLLKEWGSLENLLKNLDRVKPENVREKIKAHLEDLRLSLELSRVRTDLPLEVDLAQGREPDRERLRAFLERLEFGSLLHEFGLLESPKALEEAPWPPPEGAFVGFVLSRKAPMWADLLALAAARGGRVYRAPEPYKALRDLKEARGLLAKDLSVLALREGLGLPPGDDPMLLAYLLDPSNTTPEGVARRYGGEWTEEAGERAALSERLFANLWGRLEGEERLLWLYREVDRPLSAVLAHMEATGVRLDVACLQALSLELAEEIRRLEEEVFRLAGHTFNLNSRDQLERVLFDELGLPAIGKTEKTGKRSTSAAILEALREAHPIVEKILQYRELTKLKSTYIDPLPDLIHPRTGRLHTRFNQTATATGRLSSSDPNLQNIPVRTPLGQRIRRAFIAEEGWLLVVLDYSQIELRVLAHLSGDENLIRVFQEGRDIHTETASWMFGVPREAVDPLMRRAAKTINFGVLYGMSAHRLSQELAIPYEEAQAFIERYFQSFPKVRAWIEKALEEGRRRGYVETLFGRRRYVPDLNARVKSVREAAERMAFNMPVQGTAADLMKLAMVKLFPRLREMGARMLLQVHDELLLEAPQARAEEVAALAKEAMEKAYPLAVPLEVKVGIGEDWLSAKE
modifications: Mutant Taq polymerase

How the values were obtained:
[1] = test system: four mismatch primers; experiment: PCR screen of clones with four mismatch primers; assay type: biochemical; conditions: 292 base pair product, 50 cycles of PCR
Method: The resultant clones from both CSR and CST were screened and ranked by PCR assay. Briefly, 2 μl of induced cells were added to 20 μl of PCR mix with the relevant 4 mismatch primers. Clones that produced a band were then subjected to further analysis and their activity on single, double and quadruple mismatch primers (single mismatch primers: 5′-CAGGAAACAGCTATGACAAAAATCTAGATAACGAGGGA-3′ (SEQ ID NO: 48) and 5′-GTAAAACGACGGCCAGTACCACCGAACTGCGGGTGACGCCAAGCC 3′ (SEQ ID NO: 49); double mismatch primers: CAGGAAACAGCTATGACTCGACAAAAATCTAGATAACGACC (SEQ ID NO: 50) and GTAAAACGACGGCCAGTTTATTAACCACCGAACTGC (SEQ ID NO: 51); four mismatch primers above.) was investigated. Polymerases that could extend all of these mismatches were found, though many polymerases could do only one of the mismatches and […].
The best first and second round clones were shuffled as described above and subjected to another round of CSR. The same two sets of mismatch primers with four mismatches at their 3′ end were used in the emulsion as two separate sources of selective pressure. This was then dealt with as above and the resultant clones were screened and ranked by PCR assay (as above). Once again, polymerases that could extend all of these mismatches were found. In particular, clones 3B5.

[2] = test system: primers with an abasic site seven bases from their 3′ end; experiment: Abasic site bypass in PCR; assay type: biochemical; conditions: 176 bp product, 20 cycles of PCR
Method: FIG. 10. A list of polymerases selected to extend four mismatches were assayed for their ability to extend abasic sites in PCR. Primers with an abasic site seven bases from their 3′ end were designed. Such primers will prevent exponential amplification of the target sequence, restricting it to […] amplification, unless the abasic site is bypassed. […] (A) Screen which identified clone A10. (B) A further 4 polymerases that display good abasic site bypass. Lane M: markers, Hae III digest of Φ X174.
A list of polymerases selected to extend four mismatches were assayed for their ability to extend abasic sites in PCR (FIG. 10).

| Molecule | extension of primers containing four mismatches in PCR [1] | amplification product in PCR with abasic site primers [2] | extension of primers containing four mismatches in PCR ([1]; listed as B8) |
| --- | --- | --- | --- |
| B1 | cannot | produced an amplification product |  |
| B2 | able to extend primers containing four mismatches | produced an amplification product | cannot |
| B3 | able to extend primers containing four mismatches |  |  |
